Experimental data as given in patent US20240192215A1 (E AND S HEALTHCARE, published 2024).

T1: Peptide_046 (human)
T1 construct: 15-mer of hTrx1 on microarray
T1 peptide: ATWCGPCKMIKPFFH

T2: Peptide_047 (human)
T2 construct: 15-mer of hTrx1 on microarray
T2 peptide: TWCGPCKMIKPFFHS

T3: Peptide_048 (human)
T3 construct: 15-mer of hTrx1 on microarray
T3 peptide: WCGPCKMIKPFFHSL

T4: Peptide_049 (human)
T4 construct: 15-mer of hTrx1 on microarray
T4 peptide: CGPCKMIKPFFHSLS

T5: Peptide_050 (human)
T5 construct: 15-mer of hTrx1 on microarray
T5 peptide: GPCKMIKPFFHSLSE

T6: Peptide_052 (human)
T6 construct: 15-mer of hTrx1 on microarray
T6 peptide: CKMIKPFFHSLSEKY

T7: Peptide_053 (human)
T7 construct: 15-mer of hTrx1 on microarray
T7 peptide: KMIKPFFHSLSEKYS

T8: Peptide_054 (human)
T8 construct: 15-mer of hTrx1 on microarray
T8 peptide: MIKPFFHSLSEKYSN

T9: Peptide_055 (human)
T9 construct: 15-mer of hTrx1 on microarray
T9 peptide: IKPFFHSLSEKYSNV

T10: Peptide_056 (human)
T10 construct: 15-mer of hTrx1 on microarray
T10 peptide: KPFFHSLSEKYSNVI

T11: Peptide_057 (human)
T11 construct: 15-mer of hTrx1 on microarray
T11 peptide: PFFHSLSEKYSNVIF

T12: Peptide_012 (human)
T12 construct: 15-mer on microarray; not native form, includes recombinant insert region
T12 peptide: HHHHHHHVKQIESKT

T13: Peptide_021 (human)
T13 construct: 15-mer of hTrx1 on microarray
T13 peptide: QIESKTAFQEALDAA

T14: Peptide_024 (human)
T14 construct: 15-mer of hTrx1 on microarray
T14 peptide: SKTAFQEALDAAGDK

T15: Peptide_045 (human)
T15 construct: 15-mer of hTrx1 on microarray
T15 peptide: SATWCGPCKMIKPFF

T16: Peptide_085 (human)
T16 construct: 15-mer of hTrx1 on microarray
T16 peptide: ECEVKCMPTFQFFKK

T17: Peptide_086 (human)
T17 construct: 15-mer of hTrx1 on microarray
T17 peptide: CEVKCMPTFQFFKKG

T18: Peptide_094 (human)
T18 construct: 15-mer of hTrx1 on microarray
T18 peptide: FQFFKKGQKVGEFSG

T19: human thioredoxin-1 (Trx1) (human, UniProt P10599 1-105)
T19 construct: also called hTrx1; hTRX1
T19 sequence (looked up): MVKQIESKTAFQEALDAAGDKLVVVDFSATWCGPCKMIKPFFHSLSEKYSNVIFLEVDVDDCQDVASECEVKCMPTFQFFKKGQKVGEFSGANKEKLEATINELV

B1: monoclonal antibody B264 (antibody, mouse IgG1, kappa, V domains shown)
VH: QVQLQQSGAELARPGASVKMSCKASGYTFTSYTMHWVKQRPGQGLEWIGYINPTSDYTNYNQKFKDKATLTADKSSSTAYMQLSSLTSEDSAVYFCASEGGFLYYFDYWGQGTTLTVSS
VL: DVLMTQTPLSLPVSLGDQASISCRSSQSIVHSNGNTYLEWYLQKPGQSPKLLIYKVSNRFSGVPDRFSGSGSGTDFTLKISRVEAEDLGVYYCFQGSHVPYTFGGGTKLEIKR
notes: also called AB264; B264 (Trx1-mIgG1)
B2: monoclonal antibody B266-1 (antibody, human IgG1)
light: QIVLTQSPAIMSASPGEKVTMTCSASSRISYMYWYQQKPGTSPKRWIYDTSKLASGVPARFSGSGSGTSYSLTISTMEAEDAATYYCHQRSSYPTFGAGTKLELKSVAAPSVFIFPPSDEQLKSGTASVVCLLNNFYPREAKVQWKVDNALQSGNSQESVTEQDSKDSTYSLSSTLTLSKADYEKHKVYACEVTHQGLSSPVTKSFNRGEC
heavy: not shown
notes: B266 with the Fc part changed to human IgG1; also called B266-1 (Trx1-hIgG1); B266-1 (hTrx1-hIgG1)

Key:
Peptide_046 [1] = target: T1, Peptide_046; assay: peptide microarray, 1 ug/mL
Experimental: (§1) 5, 1, 0.2, 0.04, 0.008 and 0.0016 μg/mL serial dilutions were incubated on a single multi-well microarray slide at 30° C. for 1 hour. The slide includes 21 individual mini-arrays (one mini-array per sample dilution).
(§2) DyLight 650 was used as a label. False-positive binding to a peptide was evaluated by performing one additional control incubation in which only a secondary antibody was applied on the same microarray slide. Before performing each step, the microarrays were washed with a washing buffer.

Peptide_047 [2] = target: T2, Peptide_047; assay: peptide microarray, 1 ug/mL
Experimental: as §1, §2

Peptide_048 [3] = target: T3, Peptide_048; assay: peptide microarray, 1 ug/mL
Experimental: as §1, §2

Peptide_049 [4] = target: T4, Peptide_049; assay: peptide microarray, 1 ug/mL
Experimental: as §1, §2

Peptide_050 [5] = target: T5, Peptide_050; assay: peptide microarray, 1 ug/mL
Experimental: as §1, §2

Peptide_052 [6] = target: T6, Peptide_052; assay: peptide microarray, 1 ug/mL
Experimental: as §1, §2

Peptide_053 [7] = target: T7, Peptide_053; assay: peptide microarray, 1 ug/mL
Experimental: as §1, §2

Peptide_054 [8] = target: T8, Peptide_054; assay: peptide microarray, 1 ug/mL
Experimental: as §1, §2

Peptide_055 [9] = target: T9, Peptide_055; assay: peptide microarray, 1 ug/mL
Experimental: as §1, §2

Peptide_056 [10] = target: T10, Peptide_056; assay: peptide microarray, 1 ug/mL
Experimental: as §1, §2

Peptide_057 [11] = target: T11, Peptide_057; assay: peptide microarray, 1 ug/mL
Experimental: as §1, §2

Peptide_046 [12] = target: T1, Peptide_046; assay: peptide microarray, 5 ug/mL
Experimental: as §1, §2

Peptide_047 [13] = target: T2, Peptide_047; assay: peptide microarray, 5 ug/mL
Experimental: as §1, §2

Peptide_048 [14] = target: T3, Peptide_048; assay: peptide microarray, 5 ug/mL
Experimental: as §1, §2

Peptide_049 [15] = target: T4, Peptide_049; assay: peptide microarray, 5 ug/mL
Experimental: as §1, §2

Peptide_050 [16] = target: T5, Peptide_050; assay: peptide microarray, 5 ug/mL
Experimental: as §1, §2

Peptide_052 [17] = target: T6, Peptide_052; assay: peptide microarray, 5 ug/mL
Experimental: as §1, §2

Peptide_053 [18] = target: T7, Peptide_053; assay: peptide microarray, 5 ug/mL
Experimental: as §1, §2

Peptide_054 [19] = target: T8, Peptide_054; assay: peptide microarray, 5 ug/mL
Experimental: as §1, §2

Peptide_055 [20] = target: T9, Peptide_055; assay: peptide microarray, 5 ug/mL
Experimental: as §1, §2

Peptide_056 [21] = target: T10, Peptide_056; assay: peptide microarray, 5 ug/mL
Experimental: as §1, §2

Peptide_057 [22] = target: T11, Peptide_057; assay: peptide microarray, 5 ug/mL
Experimental: as §1, §2

Peptide_046 [23] = target: T1, Peptide_046; assay: peptide microarray, 0.04 ug/mL
Experimental: as §1, §2

Peptide_047 [24] = target: T2, Peptide_047; assay: peptide microarray, 0.04 ug/mL
Experimental: as §1, §2

Peptide_052 [25] = target: T6, Peptide_052; assay: peptide microarray, 0.04 ug/mL
Experimental: as §1, §2

Peptide_053 [26] = target: T7, Peptide_053; assay: peptide microarray, 0.04 ug/mL
Experimental: as §1, §2

Peptide_055 [27] = target: T9, Peptide_055; assay: peptide microarray, 0.04 ug/mL
Experimental: as §1, §2

Peptide_056 [28] = target: T10, Peptide_056; assay: peptide microarray, 0.04 ug/mL
Experimental: as §1, §2

Peptide_057 [29] = target: T11, Peptide_057; assay: peptide microarray, 0.04 ug/mL
Experimental: as §1, §2

Peptide_012 = target: T12, Peptide_012; assay: peptide microarray, 0.0016 ug/mL
Experimental: as §1, §2

Peptide_021 = target: T13, Peptide_021; assay: peptide microarray, 0.0016 ug/mL
Experimental: as §1, §2

Peptide_024 = target: T14, Peptide_024; assay: peptide microarray, 0.0016 ug/mL
Experimental: as §1, §2

Peptide_045 = target: T15, Peptide_045; assay: peptide microarray, 0.0016 ug/mL
Experimental: as §1, §2

Peptide_085 = target: T16, Peptide_085; assay: peptide microarray, 0.0016 ug/mL
Experimental: as §1, §2

Peptide_086 = target: T17, Peptide_086; assay: peptide microarray, 0.0016 ug/mL
Experimental: as §1, §2

Peptide_094 = target: T18, Peptide_094; assay: peptide microarray, 0.0016 ug/mL
Experimental: as §1, §2

[30] = target: T19, human thioredoxin-1 (Trx1); assay: ELISA on 100 ng coated Trx1, antibody titration, Prism fit
Experimental: 100 μl of a coating buffer and 100 ng of Trx1 were mixed and dispensed to each well, and then reacted at 4° C. for 16 hours or more. After the reaction solution was removed, 200 μl of PBSA was dispensed to each well and reacted at 37° C. for 120 minutes. […] After the reaction solution was removed, washing was performed by dispensing 200 μl of a washing buffer to each well. The above-described process was performed two times.
After the reaction solution was removed, washing was performed by dispensing 200 μl of a washing buffer to each well. The above-described process was performed three times.

Binder	signal (blank-control = 1) (Peptide_046 [1])	signal (blank-control = 1) (Peptide_047 [2])	signal (blank-control = 1) (Peptide_048 [3])	signal (blank-control = 1) (Peptide_049 [4])	signal (blank-control = 1) (Peptide_050 [5])	signal (blank-control = 1) (Peptide_052 [6])	signal (blank-control = 1) (Peptide_053 [7])	signal (blank-control = 1) (Peptide_054 [8])	signal (blank-control = 1) (Peptide_055 [9])	signal (blank-control = 1) (Peptide_056 [10])	signal (blank-control = 1) (Peptide_057 [11])	signal (blank-control = 1) (Peptide_046 [12])	signal (blank-control = 1) (Peptide_047 [13])	signal (blank-control = 1) (Peptide_048 [14])	signal (blank-control = 1) (Peptide_049 [15])	signal (blank-control = 1) (Peptide_050 [16])	signal (blank-control = 1) (Peptide_052 [17])	signal (blank-control = 1) (Peptide_053 [18])	signal (blank-control = 1) (Peptide_054 [19])	signal (blank-control = 1) (Peptide_055 [20])	also measured
B1	5.62	4.07	3.91	1.2	0.47	4.43	8.52	1.43	3.26	2.58	2.19	6.2	4.89	2.15	1.11	0.54	5.14	6.49	1.46	3.57	signal (blank-control = 1) (Peptide_056 [21]): 2.86; signal (blank-control = 1) (Peptide_057 [22]): 2.44; signal (blank-control = 1) (Peptide_046 [23]): 2.87; signal (blank-control = 1) (Peptide_047 [24]): 1.97; signal (blank-control = 1) (Peptide_052 [25]): 2.02; signal (blank-control = 1) (Peptide_053 [26]): 2.54; signal (blank-control = 1) (Peptide_055 [27]): 1.51; signal (blank-control = 1) (Peptide_056 [28]): 1.35; signal (blank-control = 1) (Peptide_057 [29]): 2.15; signal (blank-control = 1) (Peptide_012): 0.81; signal (blank-control = 1) (Peptide_021): 0.73; signal (blank-control = 1) (Peptide_024): 0.72; signal (blank-control = 1) (Peptide_045): 4.08; signal (blank-control = 1) (Peptide_085): 0.65; signal (blank-control = 1) (Peptide_086): 0.82; signal (blank-control = 1) (Peptide_094): 0.62; Kd [30]: 130 pM
B2	3.18	2.25	6	1.96	1.09	2.38	2.13	1.15	1.38	1.84	2.07	6.41	5.58	6.1	2.89	2.19	3.84	2.45	2.36	2.08	signal (blank-control = 1) (Peptide_056 [21]): 2.89; signal (blank-control = 1) (Peptide_057 [22]): 2.39; signal (blank-control = 1) (Peptide_046 [23]): 1.96; signal (blank-control = 1) (Peptide_047 [24]): 1.5; signal (blank-control = 1) (Peptide_052 [25]): 1.23; signal (blank-control = 1) (Peptide_053 [26]): 1.35; signal (blank-control = 1) (Peptide_055 [27]): 1.41; signal (blank-control = 1) (Peptide_056 [28]): 1.11; signal (blank-control = 1) (Peptide_057 [29]): 1.87; Kd [30]: 11 pM
